We go through seven molecules from patent US7579150B1, “Mobile RNA acts as a signal to regulate plant growth and development” (Iowa State University Research Foundation, Inc., priority 2004, dated 2009).

This assay has as its system POTH1. In words: Yeast two-hybrid interaction with POTH1 (nutritional selection, beta-galactosidase). The following applies: yeast strain AH109, nutritional markers and lacZ. It is filed as cell-based, potato. The text has this:
The Matchmaker two-hybrid system (Clontech, CA) was used for the yeast two-hybrid screen. Yeast transformation and plasmid rescue into DH5-a E. coli cells were according to the manufacturer's instructions. Full-length POTH1 was cloned into the pBridge (Clontech, CA) vector and used as bait to screen the potato (S. tuberosum ‘Desireé’) stolon cDNA library in pAD-GAL4-2.1 (Stratagene, Calif.). Positive interactions were confirmed by cotransforming yeast strain AH109 with each purified pAD plasmid and pBridge: POTH1 and plating on -leucine/-tryptophan (transformation control) and -leucine/-tryptophan/-histidine/-adenine (selection) nutrient medium. Induction of the AH109 reporter gene, lacZ, was measured with a yeast β-galactosidase assay kit (Pierce Chemicals). β-galactosidase activity (FIG. 9B) was determined from a known density of yeast cells and calculated as 1000×OD420/time of color reaction (minutes)×volume of yeast culture (ml)×OD600.
The StBEL-05 deletion constructs were amplified by PCR, then cloned into the vector, pGAD, in-frame with the GAL4 activation domain. POTH1 deletion constructs were amplified by PCR, and cloned into pBridge (Clontech) in-frame with the GAL4 binding domain. Sequencing of selected cDNAs and constructs was performed at the Iowa State University DNA Facility. For deletion analysis, modified constructs of POTH1 were cloned into the pBridge vector for fusion with the DNA-binding domain of GAL4 (FIG. 10A). For StBEL-05, constructs were cloned into the pGAD vector for fusion with the activating domain of GAL4 (FIG. 10B). Deletion constructs were made from both the amino and carboxy termini. These mutants were then tested for interaction in the yeast two-hybrid system by cotransforming into yeast strain AH109 with the corresponding full-length partner (StBEL-05 in pGAL4 or POTH1 in pBridge). All constructs were sequenced to verify that they were in-frame. Positive interactions were verified for lacZ induction by using a β-galactosidase assay (Pierce Chemical Company). For POTH1, seven deletion constructs were tested (FIG. 10A). For the BEL TFs, a fusion construct of StBEL-05 (653 aa of StBEL-05 sequence) and nine deletion constructs were tested (FIG. 10B).

POTH1, sequence (as listed by the source): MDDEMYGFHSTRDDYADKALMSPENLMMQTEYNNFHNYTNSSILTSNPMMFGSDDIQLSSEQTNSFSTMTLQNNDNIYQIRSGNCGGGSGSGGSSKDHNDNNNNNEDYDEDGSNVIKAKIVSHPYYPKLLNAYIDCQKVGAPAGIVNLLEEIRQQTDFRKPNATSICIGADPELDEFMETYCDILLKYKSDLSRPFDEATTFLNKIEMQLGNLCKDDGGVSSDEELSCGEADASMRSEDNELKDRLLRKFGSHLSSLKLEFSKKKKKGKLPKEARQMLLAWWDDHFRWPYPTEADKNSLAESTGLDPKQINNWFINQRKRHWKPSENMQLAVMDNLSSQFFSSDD

B1: StBEL-14: BEL transcription factor from Solanum tuberosum, SEQ ID NO:8 (protein, listed as Solanum tuberosum)
chain: MVNHQLQNFETNPEMYNLSSTTSSMDQMIGFPPNNNNPHHVLWKGNFPNKINGVDDDDHGPSSSKNIISEQFYQHGSHENMLTTTTTHHDDHQGSWHHDNNRTLLVDDPSMRCVFPCEGNERPSHGLSLSLCSSNPSSIGLQSFELRHQDLQQGLIHDGFLGKSTNIQQGYFHHHHQVRDSKYLGPAQELLSEFCSLGIKKNNDHSSSKVLLKQHESTASTSKKQLLQSLDLLELQKRKTKLLQMLEEVDRRYKHYCDQMKAVVSSFEAVAGNGAATVYSALASRAMSRHFRCLRDGIVAQIKATKMAMGEKDSTSTLIPGSTRGETPRLRLLDQTLRQQKAFQQMNMMETHPWRPQRGLPERSVSVLRAWLFEHFLHPYPSDVDKHILARQTGLSRSQVSNWFINARVRLWKPMVEEMYLEETKEEENVGSPDGSKALIDDMTIHQSHIDHHQADQKPNLVRIDSECISSIINHQPHEKNDQNYGVIRGGDQSFGAIELDFSTNIAYGTSGGDHHHHGGGVSLTLGLQQHGGSGGSSMGLTTFSSQPSHNQSSLFYPRDDDQVQYSSLLDSENQNLPYRNLDGGTTSS
Consider B1, for which the “interaction with POTH1” value was “showed selective interaction”.

B2: StBEL-30: BEL transcription factor from Solanum tuberosum, SEQ ID NO:14 (protein, listed as Solanum tuberosum)
chain: MATYFPSPNNQRDADQTFQYFRQSLPESYSEASNAPENMMVFMNYSSSGAYSDMLTGTSQQQHNCIDIPSIGATPFNTSQQEILSNLGGSQMGIQDFSSWRDSRNEMLADNVFQVAQNVQGQGLSLSLGSNIPSGIGISHVQSQNPNQGGGFNMSFGDGDNSQPKEQRNADYFPPDNPGRDLDAMKGYNSPYGTSSIARTIPSSKYLKAAQYLLDEVVSVRKAIKEQNSKKELTKDSRESDVDSKNISSDTPANGGSNPHESKNNQSELSPTEKQEVQNKLAKLLSMLDEIDRRYRQYYHQMQIVVSSFDVVAGEGAAKPYTALALQTISRHFRCLRDAICDQIRASRRSLGEQDASENSKAIGISRLRFVDHHIRQQRALQQLGMMQQHAWRPQRGLPESSVSVLRAWLFEHFLHPYPKDSDKIMLARQTGLTRSQVSNWFINARVRLWKPMVEEMYKEEAGDAKIDSNSSSDVAPRLATKDSKVEERGELHQNAASEFEQYNSGQILESKSNHEADVEMEGASNAETQSQSGMENQTGEPLPAMDNCTLFQDAFVQSNDRFSEFGSFGSGNVLPNGVSLTLGLQQGEGSNLPMSIETHVSYVPLRADDMYSTAPTTMVPETAEFNCLDSGNRQQPFWLLPSAT
As to B2, the “interaction with POTH1” value is given as “showed selective interaction”.

B3: StBEL-11: BEL transcription factor from Solanum tuberosum, SEQ ID NO:4 (protein, listed as Solanum tuberosum)
chain: MTFRSSLPLDLREISTTNHQVGILSSSPLPSPGTNTNNINHTRGLGASSSFSISNGMILGSKYLKVAQDLLDEVVNVGKNIKLSDGLESGAKEKHKLDNELISLASDDVESSSQKNSGVELTTAQRQELQMKKAKLVSMLDEVDQRYRQYHHQMQMIATSFEQTTGIGSSKSYTQLALHTISKQFRCLKDAISGQIKDTSKTLGEEENIGGKIEGSKLKFVDHHLRQQRALQQLGMMQTNAWKPQRGLPERAVSVLRAWLFEHFLHPYPKDSDKIILAKQTGLTRSQVSNWFINARVRLWKPMVEEMYMEEVKKNNQEQNIEPNNNEIVGSKSSVPQEKLPISSNIIHNASPNDISTSTISTSPTGGGGSIPTQTVAGFSFIRSLNMENIDDQRNNKKARNEMQNCSTSTILSMEREIINKVVQDETIKSEKFNNTQTRECYSLMTPNYTMDDQFGTRFNNQNHEQLATTTTFHQGNGHVSLTLGLPPNSENQHNYIGLENHYNQPTHHPNISYENIDFQSGKRYATQLLQDFVS
B3: the “interaction with POTH1” value was “showed selective interaction”.

B4: StBEL-29: BEL transcription factor from Solanum tuberosum, SEQ ID NO:12 (protein, listed as Solanum tuberosum)
chain: QGLSLSLSSSQQPGFGNFTAARELVSSPSGSASASGIQQQQQQQQSISSVPLSSKYMKAAQELLDEVVNVGKSMKSTNSTDVVVNNDVKKSKNMGDMDGQLDGVGADKDGAPTTELSTGERQEIQMKKAKLVNMLDEVEQRYRHYHHQMQSVIHWLEQAAGIGSAKTYTALALQTISKQFRCLKDAIIGQIRSASQTLGEEDSLGGKIEGSRLKFVDNQLRQQRALQQLGMIQHNAWRPQRGLPERAVSVLRAWLFEHFLHPYPKDSDKMMLAKQTGLTRSQVSNWFINARVRLWKPMVEEMYLEEIKEHEQNGLGQEKTSKLGEQNEDSTTSRSIATQDKSPGSDSQNKSFVSKQDNHLPQHNPASPMPDVQRHFHTPIGMTIRNQSAGFNLIGSPEIESINITQGSPKKPRNNEMLHSPNSIPSINMDVKPNEEQMSMKFGDDRQDRDGFSLMGGPMNFMGGFGAYPIGEIARFSTEQFSAPYSTSGTVSLTLGLPHNENLSMSATHHSFLPIPTQNIQIGSEPNHEFGSLNTPTSAHSTSSVYETFNIQNRKRFAAPLLPDFVA
Consider B4, for which the “interaction with POTH1” value was “showed selective interaction”.

B5: StBEL-13: BEL transcription factor from Solanum tuberosum, SEQ ID NO:6 (protein, listed as Solanum tuberosum)
chain: MVMGGGASSQQLGYAKNHTPNVAESMQLFLMNPQPRSPSPSPPNSTSSTLHMLLPNPSSTSTLQGFPNPAEGSFGQFITWGNGGASAATATHHLNAQNEIGGVNVVESQGLSLSLSSSLQHKAEELQMSGEAGGMMFFNQGGSSTSGQYRYKNLNMGGSGVSPNIHQVHVGYGSSLGVVNVLRNSKYAKAAQELLEEFCSVGRGKLKKTNNKAAANNPNTNPSGANNEASSKDVPTLSAADRIEHQRRKVKLLSMVDEVDRRYNHYCEQMQMVVNSFDLVMGFGTAVPYTALAQKAMSRHFRCLKDAIGAQLKQSCELLGEKDAGNSGLTKGETPRLKMLEQSLRQQRAFHQMGMMEQEAWRPQRGLPERSVNILRAWLFEHFLHPYPSDADKHLLARQTGLSRNQVSNWFINARVRLWKPMVEDMYQQEAKDEDGDGDEKSQSQNSGNNIIAQTPTPNSLTNTSSTNMTTTTAPTTTTALAAAETGTAATPITVTSSKRSQINATDSDPSLVAINSFSENQATFPTNIHDPDDCRRGNLSGDDGTTTHDHMGSTMIRFGTTAGDVSLTLGLRHAGNLPENTHFFG
As for B5, the “interaction with POTH1” value is given as “showed selective interaction”.

B6: StBEL-22: BEL transcription factor from Solanum tuberosum, SEQ ID NO:10 (protein, listed as Solanum tuberosum)
chain: TSVYETAGLLSEMFNFQTTSTAATELLQNQLSNNYRHPNQQPHHQPPTREWFGNRQEIVVGGSLQVTFGDTKDDVNAKVLLSNRDSVTDYYQRQHNQVPSINTAESMQLFLMNPQPSSPSQSTPSTLHQGFSSPVGGHFSQFMCGGASTSSNPIGGVNVIDQGQGLSLSLSSTLQHLEASKVEDLRMNSGGEMLFFNQESQNHHNIGFGSSLGLVNVLRNSKYVKATQELLEEFCCVGKGQLFKKINKVSRNNNTSTSPIINPSGSNNNNSSSSKAIIPPNLSTAERLDHQRRKVKLLSMLDEVEKRYNHYCEQMQMVVNSFDLVMGFGAAVPYTALAQKAMSRHFKCLKDGVAAQLKKTCEALGEKDASSSSGLTKGETPRLKVLEQSLRQQRAFQQMGMMEQEAWRPQRGLPERSVNILRAWLFEHFLHPYPSDADKHLLARQTGLSRNQVANWFINARVRLWKPMVEEMYQREVNEDDVDDMQENQNSTNTQIPTPNIIITTNSNITETKSAATATIASDKKPQINVSEIDPSIVAMNTHYSSSMPTQLTNFPTIQDESDHILYRRSGAEYGTTNMASNSEIGSNMITFGTTTASDVSLTLGLRHAGNLPENTHFSG
In the case of B6, the “interaction with POTH1” value is on record as “showed selective interaction”.

B7: pAD5-9: StBEL-05 deletion construct, aa 1 through 315 (protein)
chain: MNPNNYMQGYTTSDTQQQQQLLFLNSSPAASNALCHANIQHAPLQQQHFVGVPLPAVSLHDQINHHGLLQRMWNNQDQSQQVIVPSSTGVSATSCGGITTDLASQLAFQRPIPTPQHRQQQQQQGGLSLSLSPQLQQQISFNNNISSSSPRTNNVTIRGTLDGSSSNMVLGSKYLKAAQELLDEVVNIVGKSIKGDDQKKDNSMNKESMPLASDVNTNSSGGGESSSRQKNEVAVELTTAQRQELQMKKAKLLAMLEEVEQRYRQYHHQMQIIVLSFEQVAGIGSAKSYTQLALHAISKQFRCLKDAIAEQVKAT
modifications: left off: large carriers
Turning to B7, the “interaction with POTH1” value is given as “interaction with POTH1”.
